Assay results published in patent US20250326865A1, “C-MET PROTEIN-BINDING PEPTIDE COMPLEX” (PeptiDream Inc., priority 2021, published 2025).
Read-outs that look alike come from different tables or passages of the source. Values belong to the molecule of their own block, whether it stands above or below them. Starred links: 1 amine or outer side, 2 acyl side, 3 side chain; linkers in the order of their positions; H or OH if unused. Positions of bridges follow the written chain, without caps; N, C: chain ends. Non-standard residues stand in square brackets, D forms with d. Residues, ends and D or L forms follow the SMILES beside them. Primed or numbered codes have the meaning given here. Chains are numbered I, II in the order given. No end group written: not given here. CO(CH2)2(OCH2CH2)17CO = O=C(CCOCCOCCOCCOCCOCCOCCOCCOCCOCCOCCOCCOCCOCCOCCOCCOCCOCCC(=O)[*:2])[*:1]; OCOPEG13OCO = 3,6,9,12,15,18,21,24,27,30,33-undecaoxapentatriacontane-1,35-diylbis(bicarbonate); CO(CH2CH2O)9CH2CH2CO = O=C(CCOCCOCCOCCOCCOCCOCCOCCOCCOCCC(=O)[*:2])[*:1]; X1 = O=C(OCCOCCOCCOCCOCCOCCOCCOCCOCCOCCOCCOCCOC(=O)[*:2])[*:1]; NMeF = CN[C@@H](Cc1ccccc1)C(=O)O; Ahp(2) = CCCCC[C@H](N)C(=O)O; NMeC = CN[C@@H](CS)C(=O)O; Ahp′ = not defined here

Experiments:
[1] = biological target: T1, human c-Met protein (human, UniProt P08581 25-1390); assay: cell-based or functional assay
T1 sequence (P08581 25-1390): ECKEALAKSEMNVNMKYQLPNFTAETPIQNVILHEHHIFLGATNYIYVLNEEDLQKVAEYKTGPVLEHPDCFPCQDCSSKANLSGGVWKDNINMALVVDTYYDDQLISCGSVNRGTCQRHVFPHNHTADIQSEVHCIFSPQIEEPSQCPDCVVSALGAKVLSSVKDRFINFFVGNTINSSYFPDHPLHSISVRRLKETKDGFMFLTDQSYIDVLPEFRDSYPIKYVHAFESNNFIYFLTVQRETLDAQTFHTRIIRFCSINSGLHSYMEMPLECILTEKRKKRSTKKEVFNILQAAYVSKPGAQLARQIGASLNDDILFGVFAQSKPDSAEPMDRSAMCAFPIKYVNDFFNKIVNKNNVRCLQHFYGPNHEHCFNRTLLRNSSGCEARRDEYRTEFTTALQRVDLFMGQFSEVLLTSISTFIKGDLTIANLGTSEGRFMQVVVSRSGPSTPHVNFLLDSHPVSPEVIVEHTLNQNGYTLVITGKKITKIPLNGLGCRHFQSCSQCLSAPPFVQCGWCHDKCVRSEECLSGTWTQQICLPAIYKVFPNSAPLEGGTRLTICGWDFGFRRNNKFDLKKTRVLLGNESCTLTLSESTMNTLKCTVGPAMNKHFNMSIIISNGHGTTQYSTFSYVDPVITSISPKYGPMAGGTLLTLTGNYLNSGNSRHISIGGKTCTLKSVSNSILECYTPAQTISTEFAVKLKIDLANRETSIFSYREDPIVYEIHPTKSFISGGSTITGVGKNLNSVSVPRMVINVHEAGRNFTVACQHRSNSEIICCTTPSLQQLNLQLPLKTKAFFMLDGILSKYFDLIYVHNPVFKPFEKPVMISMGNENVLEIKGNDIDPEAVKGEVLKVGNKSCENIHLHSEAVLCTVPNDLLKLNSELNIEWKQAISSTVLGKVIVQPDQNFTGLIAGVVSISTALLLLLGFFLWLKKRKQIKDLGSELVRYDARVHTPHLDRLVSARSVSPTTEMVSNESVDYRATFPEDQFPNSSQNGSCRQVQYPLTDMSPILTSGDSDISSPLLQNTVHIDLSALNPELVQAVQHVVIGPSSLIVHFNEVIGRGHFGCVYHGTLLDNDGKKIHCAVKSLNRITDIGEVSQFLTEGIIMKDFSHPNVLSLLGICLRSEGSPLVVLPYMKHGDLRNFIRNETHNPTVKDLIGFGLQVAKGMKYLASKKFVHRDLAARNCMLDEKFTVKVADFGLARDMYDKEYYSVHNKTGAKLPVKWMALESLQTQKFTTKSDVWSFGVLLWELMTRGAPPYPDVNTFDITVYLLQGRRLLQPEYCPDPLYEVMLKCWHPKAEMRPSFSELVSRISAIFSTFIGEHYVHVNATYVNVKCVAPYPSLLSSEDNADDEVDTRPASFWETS

[2] = biological target: T2, c-Met (Homo sapiens, UniProt P08581); assay: Phospho-c-Met AlphaLISA assay (c-Met agonist activity) in A431 cells; format: cell-based; conditions: 15 minutes of stimulation; for EC50: concentration of peptide showing 50% activity of the signal induced by HGF, A431 cells, read-out: C-Met Agonist Activity (C50; nM); for C-Met Agonist Activity (2 or 1): c-Met phosphorylation (Tyr1234/1235) in A431 cells, maximum signal induced by HGF = 100%
T2 construct: endogenous in cells; host or cells: A431 (human)
T2 sequence (P08581 25-1390): as above
Procedure: To evaluate the activation potency (c-Met agonist activity) of c-Met of the peptide complex of the present invention, the phosphorylation of c-Met was verified. Human A431 cells were cultured in DMEM high glucose, GlutaMAX (registered trademark) Supplement, pyruvate (Thermo Fisher Scientific), containing 10% FBS (Gibco). After cells were detached using Accutase (Innovative cell technologies), they were seeded into a 96-well plate at 10000 cells per well and cultured overnight. The next day, for starvation, the culture medium was changed to DMEM high glucose, GlutaMAX (registered trademark) Supplement, pyruvate (Thermo Fisher Scientific), containing 0.1% BSA (Sigma-Aldrich), and the cells were cultured overnight. Then, the peptide complex synthesized in Example 3 or Recombinant Human HGF Protein (R&D systems) as a control was added, and after 15 minutes of stimulation, cells were lysed in a Lysis Buffer provided in the AlphaLISA (registered trademark) SureFire (registered trademark) Ultra™ Phospho-c-Met (Tyr1234/1235) kit (PerkinElmer). The assay was performed according to the kit protocol, and a SpectraMax (registered trademark) Paradigm (registered trademark) multimode microplate reader (Molecular Devices, LLC.) was used for signal detection. […] In the same manner, the C50 value was calculated by GraphPad Prism as the concentration of peptide showing 50% activity of the signal induced by HGF. […] Further, for a complex (GFs_c-Met-00014336-PEG13 dimer; complex no. 49 in Table 4) of a peptide (SEQ ID NO: 34) and a linker (SEQ ID NO: 37), a graph of c-Met agonist activity is shown in FIG. 1.

[3] = biological target: T1, human c-Met protein; assay: cell-based or functional assay; remark: listed apart in the source
[4] = biological target: T1, human c-Met protein; assay: cell-based or functional assay; remark: listed apart in the source

- EC50, HUVEC cell proliferation (CellTiter-Glo) [1]: 0.37 nM
- EC50, phospho-c-Met AlphaLISA, A431 cells [1]: 0.66 nM
Molecule: Recombinant Human HGF Protein (R&D systems) (from UniProt P14210 32-728) (ligand)

- EC50 [2]: 2.37 nM
Molecule: CCCCC[C@@H]1NC(=O)[C@H](CC(=O)O)NC(=O)[C@@H]2CCCN2C(=O)[C@H](CC(=O)O)NC(=O)[C@H](Cc2ccccc2)N(C)C(=O)[C@H](CO)NC(=O)[C@H](C(C)C)NC(=O)[C@H](C)NC(=O)[C@H](CCC(=O)O)NC(=O)[C@H](Cc2ccccc2)N(C)C(=O)CSC[C@@H](C(=O)NCC(=O)N[C@@H](CCCCNC(=O)CCOCCOCCOCCOCCOCCOCCOCCOCCOCCOCCOCCOCCOCCOCCOCCOCCOCCC(=O)NCCCC[C@H](NC(=O)CNC(=O)[C@@H]2CSCC(=O)N(C)[C@@H](Cc3ccccc3)C(=O)N[C@@H](CCC(=O)O)C(=O)N[C@@H](C)C(=O)N[C@@H](C(C)C)C(=O)N[C@@H](CO)C(=O)N(C)[C@@H](Cc3ccccc3)C(=O)N[C@@H](CC(=O)O)C(=O)N3CCC[C@H]3C(=O)N[C@@H](CC(=O)O)C(=O)N[C@@H](CCCCC)C(=O)N3CCC[C@H]3C(=O)N[C@@H](CCCNC(=N)N)C(=O)N[C@@H](Cc3c[nH]c4ccccc34)C(=O)N[C@@H](C)C(=O)N2C)C(N)=O)C(N)=O)N(C)C(=O)[C@H](C)NC(=O)[C@H](Cc2c[nH]c3ccccc23)NC(=O)[C@H](CCCNC(=N)N)NC(=O)[C@@H]2CCCN2C1=O [Peptide 27] (I: {CH2CO}-[NMeF]EAVS[NMeF]DPD[Ahp(2)]PRWA[NMeC]GK-NH2 / II: {CH2CO}-[NMeF]EAVS[NMeF]DPD[Ahp(2)]PRWA[NMeC]GK-NH2; linker I:17-II:17 via CO(CH2)2(OCH2CH2)17CO (inferred); thioether I:N-I:15, II:N-II:15 (inferred); C-terminus assumed)

- EC50 [2]: 0.81 nM
Molecule: CCCCC[C@@H]1NC(=O)[C@H](CC(=O)O)NC(=O)[C@@H]2CCCN2C(=O)[C@H](CC(=O)O)NC(=O)[C@H](Cc2ccccc2)N(C)C(=O)[C@H](CO)NC(=O)[C@H](C(C)C)NC(=O)[C@H](C)NC(=O)[C@H](CCC(=O)O)NC(=O)[C@H](Cc2ccccc2)N(C)C(=O)CSC[C@@H](C(=O)NCC(=O)N[C@@H](CCCCNC(=O)CCOCCOCCOCCOCCOCCOCCOCCOCCOCCC(=O)NCCCC[C@H](NC(=O)CNC(=O)[C@@H]2CSCC(=O)N(C)[C@@H](Cc3ccccc3)C(=O)N[C@@H](CCC(=O)O)C(=O)N[C@@H](C)C(=O)N[C@@H](C(C)C)C(=O)N[C@@H](CO)C(=O)N(C)[C@@H](Cc3ccccc3)C(=O)N[C@@H](CC(=O)O)C(=O)N3CCC[C@H]3C(=O)N[C@@H](CC(=O)O)C(=O)N[C@@H](CCCCC)C(=O)N3CCC[C@H]3C(=O)N[C@@H](CCCNC(=N)N)C(=O)N[C@@H](Cc3c[nH]c4ccccc34)C(=O)N[C@@H](CO)C(=O)N2C)C(N)=O)C(N)=O)N(C)C(=O)[C@H](CO)NC(=O)[C@H](Cc2c[nH]c3ccccc23)NC(=O)[C@H](CCCNC(=N)N)NC(=O)[C@@H]2CCCN2C1=O [Peptide 30] (I: {CH2CO}-[NMeF]EAVS[NMeF]DPD[Ahp(2)]PRWS[NMeC]GK-NH2 / II: {CH2CO}-[NMeF]EAVS[NMeF]DPD[Ahp(2)]PRWS[NMeC]GK-NH2; linker I:17-II:17 via CO(CH2CH2O)9CH2CH2CO (inferred); thioether I:N-I:15, II:N-II:15 (inferred))

- EC50 [2]: 0.33 nM
Molecule: CCCCC[C@@H]1NC(=O)[C@H](CC(=O)O)NC(=O)[C@H](CO)NC(=O)[C@H](CC(=O)O)NC(=O)[C@H](Cc2ccccc2)N(C)C(=O)[C@H](CO)NC(=O)[C@H](C(C)C)NC(=O)[C@H](C)NC(=O)[C@H]([C@@H](C)O)NC(=O)[C@H](Cc2ccccc2)N(C)C(=O)CSC[C@@H](C(=O)NCC(=O)N[C@@H](CCCCNC(=O)CCOCCOCCOCCOCCOCCOCCOCCOCCOCCC(=O)NCCCC[C@H](NC(=O)CNC(=O)[C@@H]2CSCC(=O)N(C)[C@@H](Cc3ccccc3)C(=O)N[C@@H]([C@@H](C)O)C(=O)N[C@@H](C)C(=O)N[C@@H](C(C)C)C(=O)N[C@@H](CO)C(=O)N(C)[C@@H](Cc3ccccc3)C(=O)N[C@@H](CC(=O)O)C(=O)N[C@@H](CO)C(=O)N[C@@H](CC(=O)O)C(=O)N[C@@H](CCCCC)C(=O)N3CCC[C@H]3C(=O)N[C@@H](CCCNC(=N)N)C(=O)N[C@@H](Cc3c[nH]c4ccccc34)C(=O)N[C@@H](C)C(=O)N2C)C(N)=O)C(N)=O)N(C)C(=O)[C@H](C)NC(=O)[C@H](Cc2c[nH]c3ccccc23)NC(=O)[C@H](CCCNC(=N)N)NC(=O)[C@@H]2CCCN2C1=O [Peptide 44] (I: {CH2CO}-[NMeF]TAVS[NMeF]DSD[Ahp(2)]PRWA[NMeC]GK-NH2 / II: {CH2CO}-[NMeF]TAVS[NMeF]DSD[Ahp(2)]PRWA[NMeC]GK-NH2; linker I:17-II:17 via CO(CH2CH2O)9CH2CH2CO (inferred); thioether I:N-I:15, II:N-II:15 (inferred))

- EC50, HUVEC cell proliferation (CellTiter-Glo) [3]: 0.55 nM
- EC50, phospho-c-Met AlphaLISA, A431 cells (FIG. 1) [3]: 0.72 nM
- C-Met Agonist Activity (C50; nM): phospho-c-Met AlphaLISA, A431 cells [4]: 0.67 nM
B1: GFs_c-Met-00014336-PEG13 dimer (peptide SEQ ID NO: 34, GFs_c-Met-00014336p; linker SEQ ID NO: 37) (peptide)
peptide: {CH2CO}-[NMeF]TAVS[NMeF]DED[Ahp(2)]PRWS[NMeC]
chain: GK[OCOPEG13OCO]KG
modifications: thioether I:N-I:15 (inferred); also: homodimer: two cyclic peptides joined by linker G-K-OCOPEG13OCO-K-G, peptide C-terminus on linker

The next lines start with the molecule.

Molecule: CCCCC[C@@H]1NC(=O)[C@H](CC(=O)O)NC(=O)[C@H](CCC(=O)O)NC(=O)[C@H](CC(=O)O)NC(=O)[C@H](Cc2ccccc2)N(C)C(=O)[C@H](CO)NC(=O)[C@H](C(C)C)NC(=O)[C@H](C)NC(=O)[C@H]([C@@H](C)O)NC(=O)[C@H](Cc2ccccc2)N(C)C(=O)CSC[C@@H](C(=O)NCC(=O)N[C@@H](CCCCNC(=O)OCCOCCOCCOCCOCCOCCOCCOCCOCCOCCOCCOCCOC(=O)NCCCC[C@H](NC(=O)CNC(=O)[C@@H]2CSCC(=O)N(C)[C@@H](Cc3ccccc3)C(=O)N[C@@H]([C@@H](C)O)C(=O)N[C@@H](C)C(=O)N[C@@H](C(C)C)C(=O)N[C@@H](CO)C(=O)N(C)[C@@H](Cc3ccccc3)C(=O)N[C@@H](CC(=O)O)C(=O)N[C@@H](CCC(=O)O)C(=O)N[C@@H](CC(=O)O)C(=O)N[C@@H](CCCCC)C(=O)N3CCC[C@H]3C(=O)N[C@@H](CCCNC(=N)N)C(=O)N[C@@H](Cc3c[nH]c4ccccc34)C(=O)N[C@@H](CO)C(=O)N2C)C(N)=O)C(N)=O)N(C)C(=O)[C@H](CO)NC(=O)[C@H](Cc2c[nH]c3ccccc23)NC(=O)[C@H](CCCNC(=N)N)NC(=O)[C@@H]2CCCN2C1=O [Peptide 49] (I: {CH2CO}-[NMeF]TAVS[NMeF]DED[Ahp(2)]PRWS[NMeC]GK-NH2 / II: {CH2CO}-[NMeF]TAVS[NMeF]DED[Ahp(2)]PRWS[NMeC]GK-NH2; linker I:17-II:17 via X1 (inferred); thioether I:N-I:15, II:N-II:15 (inferred); C-terminus assumed)
- EC50 [2]: 0.67 nM

Molecule: 13 ({CH2CO}-[NMeF]VYVS[NMeF]DDD[Ahp′]PRWH[NMeC]; thioether N-15 (inferred); not fully specified; reading uncertain; also: conjugated moiety via linker) [Peptide 13]
- C-Met Agonist Activity (2 or 1) [2]: 2 (those showing more than 50% activation were described as 2)

Molecule: 14 ({CH2CO}-[NMeF]VYVS[NMeF]DDD[Ahp′]PRWQ[NMeC]; thioether N-15 (inferred); not fully specified; reading uncertain; also: conjugated moiety via linker) [Peptide 14]
- C-Met Agonist Activity (2 or 1) [2]: 2 (those showing more than 50% activation were described as 2)
